Measured values from article PMC4773448, “Isolation and Characterization of a Novel Cold-Adapted Esterase, MtEst45, from Microbulbifer thermotolerans DAU221” (Frontiers in Microbiology, 2016).

Substrate: CCCC(=O)Oc1ccc([N+](=O)[O-])cc1
Assay: purified protein
Assay type: biochemical, Microbulbifer thermotolerans
Conditions: 20 mM Tris-HCl pH 8.17, 46.27 °C, 0.1-1 mM substrate

B1: MtEst45 (Microbulbifer thermotolerans) (protein)
chain: APRFISNLDIISFDGTELDANLFVPDTPPPDGGYPTVLFTNSWALDKHQYLLQAKALAEKGYLVMSYSTRGFGKSGGLVDVAGDNTLADTRVLIDWLEANYPVGKLGMAGISYGAGISLLTAAADSRVDAVAALSGWSDVVEGLYPNNTVNLVWGTLLVNTAFKREPIVDQIWSNLRNGHNLSDVFTFSASRSALSYVDALNANGTAVLLSNNFADYLFKPNSTIDLYTLLEGPKKLLLNPGTHAVTETLGGNGGHIWTTSFRWFDRYLKGENNGIDREPKVDMTVRISNRLEQFDDFPVTGKQSHWYLHPRLTYFGNGQLKSNPYSGWRWSNQFHSGADTAAGTGIPLVSDALEGLGIPVYTFMPAINGYYAIEYQSPLLWNGMKIRGTPTLEMWITPSKPEVQLHLHLYDTGPLGMGRLITHAPITLRNAQVGREQKIDVEFFTTSYDVPAGHRVTLAIDTEGLIYQKPADTDYEITVPYRSDRVSKLAIPQL
notes: mature form without 21-residue signal peptide (495 aa of 516); N-terminal His6 (pCold I), E. coli BL21(DE3), tag not reported cut; about 45 kDa on SDS-PAGE
Km: 99.8 µM
